Test results: publication PMC10579538 (The Journal of Biological Chemistry, 2023)

Legend:
[1] = target: myosin-7a subfragment-1 (motor domain and the first IQ motif) (human); assay: mass photometry
actin = actin (UniProt P68135)
[2] = target: full-length human myosin-7a heavy chain (isoform 1, long N-terminal isoform) (human, UniProt Q13402-1 1-2215); assay: single-molecule two-color TIRF co-migration on actin
Sequence of full-length human myosin-7a heavy chain (isoform 1, long N-terminal isoform) (Q13402 whole entry, canonical isoform): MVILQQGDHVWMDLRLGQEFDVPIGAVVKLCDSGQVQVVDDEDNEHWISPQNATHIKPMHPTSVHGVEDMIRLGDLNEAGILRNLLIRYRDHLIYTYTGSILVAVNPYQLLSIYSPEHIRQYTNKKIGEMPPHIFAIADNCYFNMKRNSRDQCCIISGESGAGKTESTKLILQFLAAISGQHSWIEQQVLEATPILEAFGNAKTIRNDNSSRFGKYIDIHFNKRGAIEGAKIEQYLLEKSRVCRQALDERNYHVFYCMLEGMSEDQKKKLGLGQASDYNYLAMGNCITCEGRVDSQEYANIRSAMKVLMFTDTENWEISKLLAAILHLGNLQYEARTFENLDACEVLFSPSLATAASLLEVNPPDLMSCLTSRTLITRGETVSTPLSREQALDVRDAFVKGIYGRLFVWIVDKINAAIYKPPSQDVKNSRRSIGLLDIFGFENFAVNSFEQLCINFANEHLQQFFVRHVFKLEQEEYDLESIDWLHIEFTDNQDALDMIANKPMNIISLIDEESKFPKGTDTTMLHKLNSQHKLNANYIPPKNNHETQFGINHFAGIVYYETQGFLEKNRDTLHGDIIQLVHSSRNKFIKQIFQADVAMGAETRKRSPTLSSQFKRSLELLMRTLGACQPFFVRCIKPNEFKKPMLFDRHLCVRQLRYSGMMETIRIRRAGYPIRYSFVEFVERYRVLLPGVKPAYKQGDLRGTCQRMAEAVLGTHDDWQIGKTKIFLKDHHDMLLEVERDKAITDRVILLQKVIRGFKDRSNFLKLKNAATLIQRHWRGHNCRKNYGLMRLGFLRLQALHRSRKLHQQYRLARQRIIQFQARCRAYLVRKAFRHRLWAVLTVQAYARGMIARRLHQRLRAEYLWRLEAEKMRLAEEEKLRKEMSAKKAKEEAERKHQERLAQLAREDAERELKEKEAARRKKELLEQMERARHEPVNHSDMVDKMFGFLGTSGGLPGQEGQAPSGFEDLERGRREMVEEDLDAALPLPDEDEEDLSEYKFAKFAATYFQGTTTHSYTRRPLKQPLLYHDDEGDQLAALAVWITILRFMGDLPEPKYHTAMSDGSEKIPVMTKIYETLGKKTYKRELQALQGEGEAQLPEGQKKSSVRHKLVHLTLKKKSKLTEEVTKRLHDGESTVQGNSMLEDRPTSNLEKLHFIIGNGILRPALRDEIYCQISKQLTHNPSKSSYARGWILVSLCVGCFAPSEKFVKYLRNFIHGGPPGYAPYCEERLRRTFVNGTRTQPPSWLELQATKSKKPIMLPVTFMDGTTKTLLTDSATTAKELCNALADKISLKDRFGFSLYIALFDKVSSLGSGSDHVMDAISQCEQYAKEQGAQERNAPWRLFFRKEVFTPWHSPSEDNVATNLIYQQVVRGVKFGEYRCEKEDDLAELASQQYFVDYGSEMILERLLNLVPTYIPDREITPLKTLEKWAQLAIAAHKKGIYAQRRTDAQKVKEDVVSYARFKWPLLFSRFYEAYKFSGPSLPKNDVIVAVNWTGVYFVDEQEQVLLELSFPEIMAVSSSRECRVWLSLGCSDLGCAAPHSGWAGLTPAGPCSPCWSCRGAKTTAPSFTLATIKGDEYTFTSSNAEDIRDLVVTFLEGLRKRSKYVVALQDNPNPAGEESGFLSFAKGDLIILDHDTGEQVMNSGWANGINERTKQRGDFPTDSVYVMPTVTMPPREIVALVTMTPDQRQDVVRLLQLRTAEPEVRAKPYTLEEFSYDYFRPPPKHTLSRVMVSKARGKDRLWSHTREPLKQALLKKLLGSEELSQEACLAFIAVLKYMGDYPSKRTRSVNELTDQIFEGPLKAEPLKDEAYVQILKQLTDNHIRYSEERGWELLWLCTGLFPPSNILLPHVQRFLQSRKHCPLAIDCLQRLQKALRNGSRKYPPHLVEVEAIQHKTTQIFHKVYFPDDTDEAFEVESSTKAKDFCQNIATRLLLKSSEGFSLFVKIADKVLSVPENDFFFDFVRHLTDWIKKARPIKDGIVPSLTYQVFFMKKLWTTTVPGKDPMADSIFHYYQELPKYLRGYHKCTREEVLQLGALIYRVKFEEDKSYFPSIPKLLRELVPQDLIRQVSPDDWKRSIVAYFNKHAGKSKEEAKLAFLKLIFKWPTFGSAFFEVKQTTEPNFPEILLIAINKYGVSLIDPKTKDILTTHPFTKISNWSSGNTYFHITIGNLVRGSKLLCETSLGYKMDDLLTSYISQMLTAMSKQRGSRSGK

Molecule: regulatory light chain (from UniProt O14950 1-172) (natural protein)
- stoichiometry N [1]: 1

Molecule: myosin-7a subfragment-1 (motor domain and the first IQ motif) (domain or fragment)
- K ATPase of the actin-activated steady-state ATPase (NADH-coupled assay) (actin): 11 µM

B1: mCherry-tagged MyRIP (myosin and Rab interacting protein) (natural protein, UniProt Q8NFW9-1 1-859, looked up)
chain: MGRKLDLSGLTDDETEHVLQVVQRDFNLRKKEEERLSELKQKLDEEGSKCSILSKHQQFVEHCCMRCCSPFTFLVNTKRQCGDCKFNVCKSCCSYQKHEKAWVCCVCQQARLLRAQSLEWFYNNVKSRFKRFGSAKVLKNLYRKHRLESGACFDILGGSLFESNLENEGSISGSDSTFYRQSEGHSVMDTLAVALRVAEEAIEEAISKAEAYGDSLDKQNEASYLRDHKEELTEELATTILQKIIRKQKSKSEQQVEEEPGWPHPQSCSTKVADEGTSASPGGYRAPAALWRSQSAFSITGEEALKTPPVEAPSRQPRDQGQHPRAESALPSWKSVDRLDETNLAPVLQSPDGNWVALKDGAPPPTRLLAKPKSGTFQALEVASSVASAYDEMGSDSEEDFDWSEALSKLCPRSRALPRNPQPQPTQAQSSDQGPIAASPSSALSPNPEAMCSDSETSSAGSSREVGHQARLSWLQRKAPRNPAAEKMRLHGELDVNFNPQLASRETSDSSEPEEAPHTTDRRARRWRRARLGSEEPSKEPSSPSAQLRDLDTHQVSDDLSETDISNEARDPQTLTDTTEEKRRNRLYELAMKMSEKETSSGEDQESEPKTESENQKESLSSEDNSQSVQEELKKKFSAVSLCNISTEVLKVINATEELIAGSTGPWESPQVPPDRQKGMFPRGTDQVRLDEQLTSLEENVYLAAGTVYGLETQLTELEDAARCIHSGTDETHLADLEDQVATAAAQVHHAELQISDIESRISALTIAGLNIAPCVRFTRRRDQKQRTQVQTIDTSRQQRRKLPAPPVKAEKIETSSVTTIKTFNHNFILQGSSTNRTKERKGTTKDLMEPALESAVMY
- binding result [2]: binds
